Positions count from the first letter of the chain named.
T1: human TGFβ2 (human, UniProt P61812 303-414)
T1 construct: also called TGFβ2 homodimer
T1 sequence: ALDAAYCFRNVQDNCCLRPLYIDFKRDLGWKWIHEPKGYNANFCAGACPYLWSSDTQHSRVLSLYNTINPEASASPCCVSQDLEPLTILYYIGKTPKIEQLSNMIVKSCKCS

T2: human TGFβ3 (human, UniProt P10600 301-412)
T2 sequence: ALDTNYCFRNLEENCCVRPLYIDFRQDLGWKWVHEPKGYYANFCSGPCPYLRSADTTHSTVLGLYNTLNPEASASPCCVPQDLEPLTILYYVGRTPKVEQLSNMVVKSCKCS

B1: S30G (antibody, V domains shown)
VH: QVQLVQSGAEVKKPGSSVKVSCKASGYTFGSNVISWVRQAPGQGLEWMGGVIPIVDIANYAQRFKGRVTITADESTSTTYMELSSLRSEDTAVYYCASTLGLVLDAMDYWGQGTLVTVSS
VL: ETVLTQSPGTLSLSPGERATLSCRASQSLGSSYLAWYQQKPGQAPRLLIYGASSRAPGIPDRFSGSGSGTDFTLTISRLEPEDFAVYYCQQYADSPITFGQGTRLEIK
notes: GC1008 IgG4 variant
B2: S31P (antibody, V domains shown)
VH: B1 VH with G30S, S31P
VL: B1 VL
notes: GC1008 IgG4 variant
B3: Y27F (antibody, V domains shown)
VH: B1 VH with Y27F, G30S
VL: B1 VL
notes: GC1008 IgG4 variant
B4: S30N (antibody, V domains shown)
VH: B1 VH with G30N
VL: B1 VL
notes: GC1008 IgG4 variant
B5: S31A (antibody, V domains shown)
VH: B1 VH with G30S, S31A
VL: B1 VL
notes: GC1008 IgG4 variant
B6: S31L (antibody, V domains shown)
VH: B1 VH with G30S, S31L
VL: B1 VL
notes: GC1008 IgG4 variant
B7: Y27M (antibody, V domains shown)
VH: B1 VH with Y27M, G30S
VL: B1 VL
notes: GC1008 IgG4 variant
B8: S30R (antibody, V domains shown)
VH: B1 VH with G30R
VL: B1 VL
notes: GC1008 IgG4 variant
B9: S31H (antibody, V domains shown)
VH: B1 VH with G30S, S31H
VL: B1 VL
notes: GC1008 IgG4 variant
B10: S30T (antibody, V domains shown)
VH: B1 VH with G30T
VL: B1 VL
notes: GC1008 IgG4 variant
B11: S31Q (antibody, V domains shown)
VH: B1 VH with G30S, S31Q
VL: B1 VL
notes: GC1008 IgG4 variant
B12: Y27E (antibody, V domains shown)
VH: B1 VH with Y27E, G30S
VL: B1 VL
notes: GC1008 IgG4 variant
B13: S30I (antibody, V domains shown)
VH: B1 VH with G30I
VL: B1 VL
notes: GC1008 IgG4 variant
B14: S30L (antibody, V domains shown)
VH: B1 VH with G30L
VL: B1 VL
notes: GC1008 IgG4 variant
B15: Y27N (antibody, V domains shown)
VH: B1 VH with Y27N, G30S
VL: B1 VL
notes: GC1008 IgG4 variant
B16: Y27G (antibody, V domains shown)
VH: B1 VH with Y27G, G30S
VL: B1 VL
notes: GC1008 IgG4 variant
B17: S31R (antibody, V domains shown)
VH: B1 VH with G30S, S31R
VL: B1 VL
notes: GC1008 IgG4 variant
B18: S30V (antibody, V domains shown)
VH: B1 VH with G30V
VL: B1 VL
notes: GC1008 IgG4 variant
B19: S31G (antibody, V domains shown)
VH: B1 VH with G30S, S31G
VL: B1 VL
notes: GC1008 IgG4 variant
B20: S30P (antibody, V domains shown)
VH: B1 VH with G30P
VL: B1 VL
notes: GC1008 IgG4 variant
B21: Y27K (antibody, V domains shown)
VH: B1 VH with Y27K, G30S
VL: B1 VL
notes: GC1008 IgG4 variant
B22: Y27D (antibody, V domains shown)
VH: B1 VH with Y27D, G30S
VL: B1 VL
notes: GC1008 IgG4 variant
B23: Y27L (antibody, V domains shown)
VH: B1 VH with Y27L, G30S
VL: B1 VL
notes: GC1008 IgG4 variant
B24: S31V (antibody, V domains shown)
VH: B1 VH with G30S, S31V
VL: B1 VL
notes: GC1008 IgG4 variant
B25: Y27P (antibody, V domains shown)
VH: B1 VH with Y27P, G30S
VL: B1 VL
notes: GC1008 IgG4 variant
B26: S30Q (antibody, V domains shown)
VH: B1 VH with G30Q
VL: B1 VL
notes: GC1008 IgG4 variant
B27: Y27I (antibody, V domains shown)
VH: B1 VH with Y27I, G30S
VL: B1 VL
notes: GC1008 IgG4 variant
B28: S31T (antibody, V domains shown)
VH: B1 VH with G30S, S31T
VL: B1 VL
notes: GC1008 IgG4 variant
B29: Y27A (antibody, V domains shown)
VH: B1 VH with Y27A, G30S
VL: B1 VL
notes: GC1008 IgG4 variant
B30: S30M (antibody, V domains shown)
VH: B1 VH with G30M
VL: B1 VL
notes: GC1008 IgG4 variant
B31: S31K (antibody, V domains shown)
VH: B1 VH with G30S, S31K
VL: B1 VL
notes: GC1008 IgG4 variant
B32: S30Y (antibody, V domains shown)
VH: B1 VH with G30Y
VL: B1 VL
notes: GC1008 IgG4 variant
B33: V55G (antibody, V domains shown)
VH: B1 VH with G30S, V55G
VL: B1 VL
notes: GC1008 IgG4 variant
B34: S31E (antibody, V domains shown)
VH: B1 VH with G30S, S31E
VL: B1 VL
notes: GC1008 IgG4 variant

target: T3, human TGFβ1 (human, UniProt P01137 279-390); assay: Biacore off-rate vs wt GC1008, 50 nM
T3 construct: also called TGFβ1 homodimer
T3 sequence (P01137 279-390 limits assumed): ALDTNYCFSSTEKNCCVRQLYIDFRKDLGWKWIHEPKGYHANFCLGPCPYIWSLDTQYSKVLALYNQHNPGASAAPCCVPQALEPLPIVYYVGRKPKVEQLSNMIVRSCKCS
Method in brief: (§1)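 Surface plasmon resonance on a Biacore 3000 measured how fast purified antibody variants dissociated from TGFβ isoforms immobilized at about 100 RU. Variants carried single heavy- or light-chain substitutions and were produced by transient Expi293F transfection with Protein A cleanup. Samples at 50 nM were tested in duplicate, and each variant kd was divided by the wild-type control kd to give fold change.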

| kd var/kd wt | Binder |
| --- | --- |
| 0.9 | B1 |
| 1.5 | B2 |
| 1.3 | B3 |
| 1.3 | B4 |
| 1.2 | B5 |
| 2 | B6 |
| 1.3 | B7 |
| 1.9 | B8 |
| 1.5 | B9 |
| 1.2 | B10 |
| 1.5 | B11 |
| 1.2 | B12 |
| 1.4 | B13 |
| 1 | B14 |
| 1.3 | B15 |
| 1.5 | B16 |
| 1.4 | B17 |

| kd var/kd wt | Binder |
| --- | --- |
| 1.1 | B18 |
| 1.1 | B19 |
| 1.2 | B20 |
| 1.9 | B21 |
| 1.2 | B22 |
| 1.4 | B23 |
| 1.4 | B24 |
| 1.7 | B25 |
| 1.2 | B26 |
| 1.3 | B27 |
| 1.6 | B28 |
| 1.6 | B29 |
| 0.7 | B30 |
| 1.8 | B31 |
| 1 | B32 |
| 1.8 | B33 |
| 1.7 | B34 |

target: T1, human TGFβ2; assay: Biacore off-rate vs wt GC1008, 50 nM
Method in brief: as §1

| kd var/kd wt | Binder |
| --- | --- |
| 0.7 | B1 |
| 1.2 | B2 |
| 1.2 | B3 |
| 1.3 | B4 |
| 1.2 | B5 |
| 1.2 | B6 |
| 1.4 | B7 |
| 1.2 | B8 |
| 1.3 | B9 |
| 1.2 | B10 |
| 1 | B11 |
| 1.4 | B12 |
| 1.1 | B13 |
| 1 | B14 |
| 1.3 | B15 |
| 1.4 | B16 |
| 1.2 | B17 |

| kd var/kd wt | Binder |
| --- | --- |
| 1.2 | B18 |
| 1.2 | B19 |
| 1 | B20 |
| 1.4 | B21 |
| 1.3 | B22 |
| 1.4 | B23 |
| 1 | B24 |
| 1.4 | B25 |
| 1.2 | B26 |
| 1.3 | B27 |
| 1.2 | B28 |
| 1.4 | B29 |
| 0.9 | B30 |
| 1.2 | B31 |
| 0.9 | B32 |
| 1.9 | B33 |
| 1.4 | B34 |

target: T2, human TGFβ3; assay: Biacore off-rate vs wt GC1008, 50 nM
Method in brief: as §1

| kd var/kd wt | Binder |
| --- | --- |
| 0.9 | B1 |
| 1.2 | B2 |
| 1.1 | B3 |
| 1.2 | B4 |
| 1.1 | B5 |
| 1.5 | B6 |
| 1.3 | B7 |
| 1.3 | B8 |
| 1.4 | B9 |
| 1.1 | B10 |
| 1 | B11 |
| 1.1 | B12 |
| 1.1 | B13 |
| 1 | B14 |
| 1.3 | B15 |
| 1.3 | B16 |
| 1.5 | B17 |

| kd var/kd wt | Binder |
| --- | --- |
| 1.1 | B18 |
| 1.1 | B19 |
| 0.9 | B20 |
| 1.3 | B21 |
| 1.2 | B22 |
| 1.1 | B23 |
| 1.4 | B24 |
| 1.4 | B25 |
| 1.1 | B26 |
| 1.1 | B27 |
| 1.5 | B28 |
| 1.5 | B29 |
| 1 | B30 |
| 1.4 | B31 |
| 0.8 | B32 |
| 1.9 | B33 |
| 1.4 | B34 |

Source: patent US20170342144A1 (Sanofi, published 2017)
